Consider one substance from patent US20080108793.

The test system of the series is crotonyl-ACP.

In the case of “N-terminal His-tagged F. tularensis FabI”, the Km (crotonyl-ACP) worked out at 4.4 µM.
